In US20230312709A1:

Target: human platelets (CD61 APC-positive gate P1)
Test: flow cytometry on diluted human whole blood, platelets gated as CD61 APC-positive (P1), PE goat anti-human IgG Fc secondary [panel hIgG4 iso : P1]

## hIgG4-isotype control (antibody)
  V2R (% of CD61-positive P1 events right of the PE gate): 0.11%
